{"source": "paper PMC4622665", "about": "(mAbs, 2014)"}
{"biological_target": "human formyl peptide receptor 1 (human, UniProt P21462)", "sequence (P21462 whole entry)": "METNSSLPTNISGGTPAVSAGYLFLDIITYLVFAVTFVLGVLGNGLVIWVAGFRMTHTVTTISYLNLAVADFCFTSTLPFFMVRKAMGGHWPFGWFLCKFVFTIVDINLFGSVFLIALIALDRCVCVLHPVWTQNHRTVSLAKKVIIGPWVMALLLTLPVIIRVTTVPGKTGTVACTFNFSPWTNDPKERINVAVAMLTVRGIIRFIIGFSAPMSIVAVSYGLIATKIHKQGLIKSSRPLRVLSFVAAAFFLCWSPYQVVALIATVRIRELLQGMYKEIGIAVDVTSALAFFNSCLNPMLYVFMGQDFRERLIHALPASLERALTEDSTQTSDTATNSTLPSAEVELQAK", "assay": "FMAT competition binding on cells", "units": {"IC50": "nM"}}
{"binder": "Fpro0084 IgG (antibody, V domains shown) VH: EVQLVESGGGLVKPGGSLRLSCAASGFTFSNAWMNWVRQAPGKGLEWVGRIKSKTDGGAADYAAPVKGRFTISRDDSKNTLYLQMNSLKTEDTAVYYCTTDQLGYDFWSGYYTDTLYYYFGMDVWGPGTTVTVSS VL: DIVMTQSPLSLPVTPGEPASISCRSSQQLQAYDGHNYLDWYLQKPGQSPQVLIYLGSNRASGVPDRFSGSGSGTDFTLKISRVEAEDVGVYYCMQALQTPLTFGGGTKVEIK", "IC50": 13}
{"binder": "Hy38-1 IgG1 (antibody, V domains shown) VH: EVQLVESGGGLVKPGGSLRLSCAASGFTFSNAWMNWVRQAPGKGLEWVGRIKSKTDGGAADYAAPVKGRFTISRDDSKNTLYLQMNSLKTEDTAVYYCTTDQLGYDFWSGYYTDTLYYYFGMDVWGPGTTVTVSS VL: not shown", "IC50": 32}
{"binder": "Fpro0067 IgG (antibody, V domains shown) VH: EVQLVESGGGLVKPGGSLRLSCAASGFTFSNAWMNWVRQAPGKGLEWVGRIKSKTDGGAADYAAPVKGRFTISRDDSKNTLYLQMNSLKTEDTAVYYCTTDQLGYDFWSGYYTDTLYYYFGMDVWGPGTTVTVSS VL: DIVMTQSPLSLPVTPGEPASISCRSSQPLLAMDGHNYLDWYLQKPGQSPQVLIYQSKWRASGVPDRFSGSGSGTDFTLKISRVEAEDVGVYYCMQALQTPLTFGGGTKVEIK", "IC50": 14}
